Results on two molecules are retold here after paper PMC10682464, “The structural basis for light acclimation in phycobilisome light harvesting systems systems in Porphyridium purpureum” (Communications Biology, 2023).

The target in data set [1] is T1, phycoerythrin (PE) β subunit of the Porphyridium purpureum phycobilisome (Porphyridium purpureum (endogenous in …, UniProt P11393 1-177, covalently attached open tetrapyrrole chromophores (sites not given))).
T1 construct: phycoerythrin beta subunit, Porphyridium purpureum (UTEX 2757); chain of the ML-PBS model PDB 7EZX, which was built from LL-PBS PDB 6KGX; also called β^PE; PE subunit
Kind of data set: cryo-EM structure; intact ML-PBS isolated from P. purpureum on a sucrose gradient; 1.5 mg/mL, diluted on the grid with 50 mM Tris pH 8.0, 16 °C; overall resolution 3.04 Å, C2 symmetry. The note with it: both partners purified.

Data set [2] concerns the molecule itself. The description is as above.

B1: phycoerythrin (PE) α subunit of the Porphyridium purpureum phycobilisome (natural protein, UniProt P11392 1-164, looked up)
chain: MKSVITTVVSAADAAGRFPSNSDLESIQGNIQRSAARLEAAEKLAGNHEAVVKEAGDACFAKYAYLKNPGEAGENQEKINKCYRDVDHYMRLVNYDLVVGGTGPLDEWGIAGAREVYRTLNLPTSAYVASIAYTRDRLCVPRDMSAQAGVEFSAYLDYLINALS
modifications: covalently attached open tetrapyrrole chromophores (sites not given)
notes: phycoerythrin alpha subunit, Porphyridium purpureum (UTEX 2757); chain of the ML-PBS model PDB 7EZX, which was built from LL-PBS PDB 6KGX; also called α^PE; PE subunit
On to B1, for which, in data set [1], the binding result was “binds”.

B2: αβ^PE monomer (phycoerythrin α and β subunits) of the Porphyridium purpureum phycobilisome (complex)
chain 1: MKSVITTVVSAADAAGRFPSNSDLESIQGNIQRSAARLEAAEKLAGNHEAVVKEAGDACFAKYAYLKNPGEAGENQEKINKCYRDVDHYMRLVNYDLVVGGTGPLDEWGIAGAREVYRTLNLPTSAYVASIAYTRDRLCVPRDMSAQAGVEFSAYLDYLINALS
chain 2: MLDAFSRVVVNSDAKAAYVGGSDLQALKSFIADGNKRLDAVNSIVSNASCMVSDAVSGMICENPGLISPGGNCYTNRRMAACLRDGEIILRYVSYALLAGDASVLEDRCLNGLKETYIALGVPTNSSIRAVSIMKAQAVAFITNTATERKMSFAAGDCTSLASEVASYFDRVGAAIS
modifications: covalently attached open tetrapyrrole chromophores (sites not given) | covalently attached open tetrapyrrole chromophores (sites not given)
notes: phycoerythrin alpha subunit, Porphyridium purpureum; as the chain of m1; phycoerythrin beta subunit, Porphyridium purpureum; as the chain of m2; The introduction says that (αβ) monomers assemble into trimers and hexamers; also called (αβ) monomer
One may read the stoichiometry N as the number of molecules, sites or subunits per partner or assembly. On to B2, for which the “stoichiometry N” value in data set [2] was 6.
